Assay results published in article doi:10.1101/2024.09.12.612777 (bioRxiv, 2024).

Assays:
Experiment in all cases: pull-down
[1] = biological target: T1, AL4 (recombinant, pull-down) (Arabidopsis thaliana, UniProt O81488 1-255)
T1 sequence (looked up): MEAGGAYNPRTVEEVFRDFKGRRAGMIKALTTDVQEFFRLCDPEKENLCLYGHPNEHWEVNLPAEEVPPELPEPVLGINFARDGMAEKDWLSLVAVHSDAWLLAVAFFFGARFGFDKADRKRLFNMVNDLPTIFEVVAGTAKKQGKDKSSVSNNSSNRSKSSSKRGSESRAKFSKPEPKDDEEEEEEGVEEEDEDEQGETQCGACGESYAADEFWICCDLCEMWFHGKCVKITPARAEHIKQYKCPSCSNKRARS

[2] = biological target: T2, BRM-3 (C-terminal domain of the BAS-type SWI/SNF chromatin remodeler BRM, 1,596-2,193 aa) (Arabidopsis thaliana, UniProt Q6EVK6 1596-2193)
T2 sequence (looked up): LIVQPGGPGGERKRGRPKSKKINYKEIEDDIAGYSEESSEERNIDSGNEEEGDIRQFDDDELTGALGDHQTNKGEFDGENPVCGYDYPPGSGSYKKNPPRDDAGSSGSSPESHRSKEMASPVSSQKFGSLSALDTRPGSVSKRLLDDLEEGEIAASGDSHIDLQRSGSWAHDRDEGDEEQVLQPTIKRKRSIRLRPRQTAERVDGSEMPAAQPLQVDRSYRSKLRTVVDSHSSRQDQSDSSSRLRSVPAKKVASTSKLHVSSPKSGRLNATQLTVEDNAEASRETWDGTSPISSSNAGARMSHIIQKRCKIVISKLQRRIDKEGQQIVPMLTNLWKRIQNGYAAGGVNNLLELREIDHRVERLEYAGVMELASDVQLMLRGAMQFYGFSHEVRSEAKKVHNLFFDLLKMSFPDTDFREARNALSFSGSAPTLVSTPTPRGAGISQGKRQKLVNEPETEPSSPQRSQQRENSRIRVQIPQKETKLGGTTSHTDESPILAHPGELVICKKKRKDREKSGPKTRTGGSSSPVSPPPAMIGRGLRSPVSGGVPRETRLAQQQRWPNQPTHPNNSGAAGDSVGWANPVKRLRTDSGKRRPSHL

[3] = biological target: T3, MINU2-3 (C-terminal domain of the MAS catalytic enzyme MINU2, 677-1,064 aa) (Arabidopsis thaliana, UniProt F4K128 677-1064)
T3 sequence (looked up): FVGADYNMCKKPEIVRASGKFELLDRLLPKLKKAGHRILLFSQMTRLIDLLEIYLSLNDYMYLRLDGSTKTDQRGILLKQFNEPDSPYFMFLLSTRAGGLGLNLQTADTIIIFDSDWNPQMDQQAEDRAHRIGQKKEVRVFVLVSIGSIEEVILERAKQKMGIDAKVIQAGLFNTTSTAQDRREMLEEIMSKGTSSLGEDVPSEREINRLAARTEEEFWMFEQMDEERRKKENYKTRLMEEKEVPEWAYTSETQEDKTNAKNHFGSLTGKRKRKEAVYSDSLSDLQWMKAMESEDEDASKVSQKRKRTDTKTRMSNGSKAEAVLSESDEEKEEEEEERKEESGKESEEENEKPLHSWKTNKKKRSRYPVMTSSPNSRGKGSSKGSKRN

[4] = biological target: T4, HDA19 (HDAC catalytic subunit) (Arabidopsis thaliana, UniProt O22446 1-501)
T4 sequence (looked up): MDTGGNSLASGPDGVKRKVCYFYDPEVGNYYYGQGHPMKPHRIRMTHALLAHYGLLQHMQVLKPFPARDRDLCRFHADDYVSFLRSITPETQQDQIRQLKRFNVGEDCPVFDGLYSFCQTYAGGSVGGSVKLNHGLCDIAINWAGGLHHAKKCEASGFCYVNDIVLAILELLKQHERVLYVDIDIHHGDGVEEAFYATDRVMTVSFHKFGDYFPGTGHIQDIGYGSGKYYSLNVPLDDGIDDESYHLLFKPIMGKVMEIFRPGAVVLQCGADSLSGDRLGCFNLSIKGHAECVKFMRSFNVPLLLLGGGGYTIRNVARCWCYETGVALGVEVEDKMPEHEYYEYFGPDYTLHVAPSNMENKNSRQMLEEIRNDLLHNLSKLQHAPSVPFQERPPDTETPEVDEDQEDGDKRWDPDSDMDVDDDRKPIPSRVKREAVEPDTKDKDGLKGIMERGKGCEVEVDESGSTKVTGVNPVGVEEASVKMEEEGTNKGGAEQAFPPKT

[5] = biological target: T5, UBP5 (H2A deubiquitinase, subunit of the PEAT complex) (Arabidopsis thaliana, UniProt O22207 1-924)
T5 sequence (looked up): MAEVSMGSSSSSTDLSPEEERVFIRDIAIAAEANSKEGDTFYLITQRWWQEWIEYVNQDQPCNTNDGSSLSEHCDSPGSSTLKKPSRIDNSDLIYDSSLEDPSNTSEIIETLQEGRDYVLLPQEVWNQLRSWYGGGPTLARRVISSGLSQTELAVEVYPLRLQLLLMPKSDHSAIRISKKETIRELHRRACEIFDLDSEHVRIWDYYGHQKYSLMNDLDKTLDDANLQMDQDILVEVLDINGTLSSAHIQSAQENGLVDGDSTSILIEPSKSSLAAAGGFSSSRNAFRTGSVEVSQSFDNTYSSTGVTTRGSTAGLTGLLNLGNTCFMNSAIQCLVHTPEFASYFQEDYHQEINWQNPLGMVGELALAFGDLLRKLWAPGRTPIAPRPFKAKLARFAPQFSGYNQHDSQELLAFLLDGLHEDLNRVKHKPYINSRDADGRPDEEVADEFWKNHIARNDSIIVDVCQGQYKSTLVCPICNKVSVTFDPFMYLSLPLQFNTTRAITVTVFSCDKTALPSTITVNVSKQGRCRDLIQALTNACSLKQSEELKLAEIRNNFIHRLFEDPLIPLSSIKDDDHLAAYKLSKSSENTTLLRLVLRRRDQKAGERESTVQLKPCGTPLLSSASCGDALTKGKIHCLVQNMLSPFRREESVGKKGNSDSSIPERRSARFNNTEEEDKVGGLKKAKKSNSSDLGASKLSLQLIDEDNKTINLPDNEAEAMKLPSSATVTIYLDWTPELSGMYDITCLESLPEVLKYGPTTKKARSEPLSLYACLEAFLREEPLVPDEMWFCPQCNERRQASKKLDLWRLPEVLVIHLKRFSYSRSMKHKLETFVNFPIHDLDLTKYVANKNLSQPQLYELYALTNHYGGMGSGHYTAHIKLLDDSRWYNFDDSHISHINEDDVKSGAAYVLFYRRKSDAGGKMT

[6] = biological target: T6, RING1A (recombinant, pull-down) (Arabidopsis thaliana, UniProt Q9FKW0 1-522)
T6 sequence (looked up): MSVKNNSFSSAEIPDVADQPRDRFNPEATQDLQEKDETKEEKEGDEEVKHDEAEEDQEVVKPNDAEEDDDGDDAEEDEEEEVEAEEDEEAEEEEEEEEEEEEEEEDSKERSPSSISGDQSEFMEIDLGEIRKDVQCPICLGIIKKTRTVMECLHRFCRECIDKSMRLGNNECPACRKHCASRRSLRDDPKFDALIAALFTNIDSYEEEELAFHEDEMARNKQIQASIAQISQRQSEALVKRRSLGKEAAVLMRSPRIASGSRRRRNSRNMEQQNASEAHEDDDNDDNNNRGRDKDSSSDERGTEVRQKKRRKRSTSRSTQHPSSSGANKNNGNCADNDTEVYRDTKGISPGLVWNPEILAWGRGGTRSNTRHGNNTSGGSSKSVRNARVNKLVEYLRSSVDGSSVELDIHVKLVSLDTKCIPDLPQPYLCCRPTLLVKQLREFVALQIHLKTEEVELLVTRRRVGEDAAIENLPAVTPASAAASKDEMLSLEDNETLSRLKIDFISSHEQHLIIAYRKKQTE

[7] = biological target: T7, GATA1 (recombinant, pull-down) (Arabidopsis thaliana, UniProt Q8LAU9 1-274)
T7 sequence (looked up): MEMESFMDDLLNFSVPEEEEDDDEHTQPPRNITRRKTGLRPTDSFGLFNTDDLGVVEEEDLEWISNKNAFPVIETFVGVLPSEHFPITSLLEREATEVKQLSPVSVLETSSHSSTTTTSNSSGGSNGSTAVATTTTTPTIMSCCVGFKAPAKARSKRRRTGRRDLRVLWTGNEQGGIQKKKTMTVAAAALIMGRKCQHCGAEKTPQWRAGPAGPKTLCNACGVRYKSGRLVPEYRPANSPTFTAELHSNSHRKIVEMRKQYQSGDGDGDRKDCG

[8] = biological target: T8, VAL1 (recombinant, pull-down) (Arabidopsis thaliana, UniProt Q8W4L5 1-790)
T8 sequence (looked up): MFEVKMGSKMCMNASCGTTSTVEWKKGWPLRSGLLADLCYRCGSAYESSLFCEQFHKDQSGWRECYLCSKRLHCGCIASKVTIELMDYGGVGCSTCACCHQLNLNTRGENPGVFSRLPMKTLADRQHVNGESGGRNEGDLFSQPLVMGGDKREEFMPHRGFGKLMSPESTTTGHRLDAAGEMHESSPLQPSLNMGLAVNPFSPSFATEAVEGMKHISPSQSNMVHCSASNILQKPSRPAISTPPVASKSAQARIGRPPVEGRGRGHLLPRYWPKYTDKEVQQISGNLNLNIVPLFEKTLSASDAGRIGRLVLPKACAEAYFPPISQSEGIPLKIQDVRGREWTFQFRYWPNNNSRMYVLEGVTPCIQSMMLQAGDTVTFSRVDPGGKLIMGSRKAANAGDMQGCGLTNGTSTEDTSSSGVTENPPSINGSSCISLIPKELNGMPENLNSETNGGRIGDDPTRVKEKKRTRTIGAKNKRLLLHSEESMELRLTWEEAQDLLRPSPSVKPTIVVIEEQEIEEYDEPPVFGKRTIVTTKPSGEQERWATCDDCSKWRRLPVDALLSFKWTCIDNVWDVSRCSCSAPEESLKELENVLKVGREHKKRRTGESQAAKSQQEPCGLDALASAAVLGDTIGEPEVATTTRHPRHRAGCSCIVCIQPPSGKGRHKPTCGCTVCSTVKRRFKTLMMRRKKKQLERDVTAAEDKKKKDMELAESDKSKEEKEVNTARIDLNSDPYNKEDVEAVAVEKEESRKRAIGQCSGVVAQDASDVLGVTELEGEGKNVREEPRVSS

[9] = biological target: ZF2 (recombinant, pull-down) (Arabidopsis thaliana, UniProt Q9SSW2 1-273)

Measured: binding result

Sequence of ZF2 (recombinant, pull-down) (Q9SSW2 whole entry): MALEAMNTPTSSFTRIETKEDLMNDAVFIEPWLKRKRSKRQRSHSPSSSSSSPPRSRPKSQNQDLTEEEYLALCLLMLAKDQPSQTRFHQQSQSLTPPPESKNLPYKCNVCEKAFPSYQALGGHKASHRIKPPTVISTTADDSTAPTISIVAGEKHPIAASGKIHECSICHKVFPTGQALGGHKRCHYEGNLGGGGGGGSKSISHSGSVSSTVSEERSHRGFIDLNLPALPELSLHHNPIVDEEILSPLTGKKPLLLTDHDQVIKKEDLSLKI

B1: AL2 (recombinant, pull-down) (natural protein, Arabidopsis thaliana, UniProt Q9SRM4 1-246, looked up)
chain: MAAAAVSSNPRTVEEIFKDYSARRAALLRALTKDVDDFYSQCDPEKENLCLYGHPNESWEVNLPAEEVPPELPEPALGINFARDGMQRKDWLSLVAVHSDCWLLSVSFYFGARLNRNERKRLFSLINDLPTLFDVVTGRKAMKDNKPSSDSGSKSRNGTKRSIDGQTKSSTPKLMEESYEEEEEEDEHGDTLCGSCGGHYTNEEFWICCDVCERWYHGKCVKITPAKAESIKQYKCPPCCAKKGRQ
binds: all assays above
